In data set [1] the test system is HeLa Kyoto. The experiment in a line: thermal stability score vs G1/S (z-score of summed log2 fold changes over temperatures); higher = more thermally stable than in G1/S.
Data set [2] concerns HeLa Kyoto. As to the kind of experiment: solubility change mitosis vs G1/S (difference of NP-40 vs SDS log2 ratios) (log2 ratio difference); higher = more soluble in mitosis.
The test system of data set [3] is HeLa Kyoto. As to the kind of experiment: melting temperature (median over replicates), in situ; higher = more thermally stable.
For data set [4], the system named is HeLa Kyoto. As to the kind of experiment: solubility in G1/S (NP-40 vs SDS abundance) (log2 ratio); higher = more soluble. Particulars: cell cycle stage: G1/S.
Setting [5] is: cell cycle stage: early G1 (4.5 h after nocodazole release).

Experimental findings from the supplement of paper PMC5998384 are described below.
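For melting temperature (median over replicates), in situ in this document: HeLa Kyoto cells synchronized by double thymidine or nocodazole block, proteins quantified by TMT10plex mass spectrometry, three independent biological replicates.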
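For solubility change mitosis vs G1/S (difference of NP-40 vs SDS log2 ratios) in this document: synchronized HeLa Kyoto cells (double thymidine block for G1/S, nocodazole release for mitosis), protein amounts in NP-40 versus SDS lysates quantified by mass spectrometry, three biological replicates.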
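For solubility in G1/S (NP-40 vs SDS abundance) in this document: HeLa Kyoto cells arrested at G1/S by double thymidine block, proteins quantified by TMT10plex mass spectrometry in mild NP-40 versus SDS extracts, three biological replicates.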
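For thermal stability score vs G1/S (z-score of summed log2 fold changes over temperatures) in this document: synchronized HeLa Kyoto cells, proteins quantified by TMT10plex mass spectrometry, three biological replicates, mitosis taken 0.5 h after nocodazole release, G1/S directly after double thymidine block.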

Regarding “MLCGRWRRCRRPPEEPPVAAQVAAQVAAPVALPSPPTPSDGGTKRPGLRALKKMGLTEDEDVRAMLRGSRLRKIRSRTWHKERLYRLQEDGLSVWFQRRIPRAPSQHIFFVQHIEAVREGHQSEGLRRFGGAFAPARCLTIAFKGRRKNLDLAAPTAEEAQRWVRGLTKLRARLDAMSQRERLDHWIHSYLHRADSNQDSKMSFKEIKSLLRMVNVDMNDMYAYLLFKECDHSNNDRLEGAEIEEFLRRLLKRPELEEIFHQYSGEDRVLSAPELLEFLEDQGEEGATLARAQQLIQTYELNETAKQHELMTLDGFMMYLLSPEGAALDNTHTCVFQDMNQPLAHYFISSSHNTYLTDSQIGGPSSTEAYVRAFAQGCRCVELDCWEGPGGEPVIYHGHTLTSKILFRDVVQAVRDHAFTLSPYPVILSLENHCGLEQQAAMARHLCTILGDMLVTQALDSPNPEELPSPEQLKGRVLVKGKKLPAARSEDGRALSDREEEEEDDEEEEEEVEAAAQRRLAKQISPELSALAVYCHATRLRTLHPAPNAPQPCQVSSLSERKAKKLIREAGNSFVRHNARQLTRVYPLGLRMNSANYSPQEMWNSGCQLVALNFQTPGYEMDLNAGRFLVNGQCGYVLKPACLRQPDSTFDPEYPGPPRTTLSIQVLTAQQLPKLNAEKPHSIVDPLVRIEIHGVPADCARQETDYVLNNGFNPRWGQTLQFQLRAPELALVRFVVEDYDATSPNDFVGQFTLPLSSLKQGYRHIHLLSKDGASLSPATLFIQIRIQRS [PLCD3]”, the thermal stability score in data set [1] (setting [5]) came out at 0.427; in data set [1] (cell cycle stage: mitosis), 0.0629. In data set [2], the “solubility change mitosis (log2)” value stood at 0.0889. Besides, the melting temperature in data set [3] (cell cycle stage: G1/S) was determined as 51.6 °C; in data set [3] (cell cycle stage: mitosis) it was 48.9 °C. Besides, the “solubility in G1/S (log2)” value in data set [4] was -0.344.

With “MLDFFTIFSKGGLVLWCFQGVSDSCTGPVNALIRSVLLQERGGNNSFTHEALTLKYKLDNQFELVFVVGFQKILTLTYVDKLIDDVHRLFRDKYRTEIQQQSALSLLNGTFDFQNDFLRLLREAEESSKIRAPTTMKKFEDSEKAKKPVRSMIETRGEKPKEKAKNSKKKGAKKEGSDGPLATSKPVPAEKSGLPVGPENGVELSKEELIRRKREEFIQKHGRGMEKSNKSTKSDAPKEKGKKAPRVWELGGCANKEVLDYSTPTTNGTPEAALSEDINLIRGTGSGGQLQDLDCSSSDDEGAAQNSTKPSATKGTLGGMFGMLKGLVGSKSLSREDMESVLDKMRDHLIAKNVAADIAVQLCESVANKLEGKVMGTFSTVTSTVKQALQESLVQILQPQRRVDMLRDIMDAQRRQRPYVVTFCGVNGVGKSTNLAKISFWLLENGFSVLIAACDTFRAGAVEQLRTHTRRLSALHPPEKHGGRTMVQLFEKGYGKDAAGIAMEAIAFARNQGFDVVLVDTAGRMQDNAPLMTALAKLITVNTPDLVLFVGEALVGNEAVDQLVKFNRALADHSMAQTPRLIDGIVLTKFDTIDDKVGAAISMTYITSKPIVFVGTGQTYCDLRSLNAKAVVAALMKA [SRPR]”, the results for the thermal stability score in data set [1] (setting [5]) and in data set [1] (cell cycle stage: mitosis) were 1.98 and 2.56, respectively. Moreover, the “solubility change mitosis (log2)” value in data set [2] was -0.0915. The melting temperature in data set [3] (cell cycle stage: G1/S) is 50.5 °C; in data set [3] (cell cycle stage: mitosis) it was 50.9 °C. For the same sequence, the “solubility in G1/S (log2)” value in data set [4] was determined as 0.119.

With “MLEEAGEVLENMLKASCLPLGFIVFLPAVLLLVAPPLPAADAAHEFTVYRMQQYDLQGQPYGTRNAVLNTEARTMAAEVLSRRCVLMRLLDFSYEQYQKALRQSAGAVVIILPRAMAAVPQDVVRQFMEIEPEMLAMETAVPVYFAVEDEALLSIYKQTQAASASQGSASAAEVLLRTATANGFQMVTSGVQSKAVSDWLIASVEGRLTGLGGEDLPTIVIVAHYDAFGVAPWLSLGADSNGSGVSVLLELARLFSRLYTYKRTHAAYNLLFFASGGGKFNYQGTKRWLEDNLDHTDSSLLQDNVAFVLCLDTVGRGSSLHLHVSKPPREGTLQHAFLRELETVAAHQFPEVRFSMVHKRINLAEDVLAWEHERFAIRRLPAFTLSHLESHRDGQRSSIMDVRSRVDSKTLTRNTRIIAEALTRVIYNLTEKGTPPDMPVFTEQMQIQQEQLDSVMDWLTNQPRAAQLVDKDSTFLSTLEHHLSRYLKDVKQHHVKADKRDPEFVFYDQLKQVMNAYRVKPAVFDLLLAVGIAAYLGMAYVAVQHFSLLYKTVQRLLVKAKTQ [NCLN]”, the thermal stability score was found to be 2.71 in data set [1] (setting [5]) and 3.43 in data set [1] (cell cycle stage: mitosis). For the same sequence, the “solubility change mitosis (log2)” value in data set [2] was -0.129. For the same sequence, the figures for the melting temperature in data set [3] (cell cycle stage: G1/S) and in data set [3] (cell cycle stage: mitosis) were 53.9 °C and 53.7 °C, respectively. The “solubility in G1/S (log2)” value in data set [4] worked out at 0.0995.

For “MLEEDMEVAIKMVVVGNGAVGKSSMIQRYCKGIFTKDYKKTIGVDFLERQIQVNDEDVRLMLWDTAGQEEFDAITKAYYRGAQACVLVFSTTDRESFEAVSSWREKVVAEVGDIPTVLVQNKIDLLDDSCIKNEEAEALAKRLKLRFYRTSVKEDLNVNEVFKYLAEKYLQKLKQQIAEDPELTHSSSNKIGVFNTSGGSHSGQNSGTLNGGDVINLRPNKQRTKKNRNPFSSCSIP [RAB23]”, the thermal stability score was 1.88 in data set [1] (setting [5]) and 1.67 in data set [1] (cell cycle stage: mitosis). Further, the “solubility change mitosis (log2)” value in data set [2] was -0.139. For the same sequence, the melting temperature in data set [3] (cell cycle stage: G1/S) and in data set [3] (cell cycle stage: mitosis) was 53.2 °C throughout. The “solubility in G1/S (log2)” value in data set [4] is -0.0011.

With “MLERRCRGPLAMGLAQPRLLSGPSQESPQTLGKESRGLRQQGTSVAQSGAQAPGRAHRCAHCRRHFPGWVALWLHTRRCQARLPLPCPECGRRFRHAPFLALHRQVHAAATPDLGFACHLCGQSFRGWVALVLHLRAHSAAKRPIACPKCERRFWRRKQLRAHLRRCHPPAPEARPFICGNCGRSFAQWDQLVAHKRVHVAEALEEAAAKALGPRPRGRPAVTAPRPGGDAVDRPFQCACCGKRFRHKPNLIAHRRVHTGERPHQCPECGKRFTNKPYLTSHRRIHTGEKPYPCKECGRRFRHKPNLLSHSKIHKRSEGSAQAAPGPGSPQLPAGPQESAAEPTPAVPLKPAQEPPPGAPPEHPQDPIEAPPSLYSCDDCGRSFRLERFLRAHQRQHTGERPFTCAECGKNFGKKTHLVAHSRVHSGERPFACEECGRRFSQGSHLAAHRRDHAPDRPFVCPDCGKAFRHKPYLAAHRRIHTGEKPYVCPDCGKAFSQKSNLVSHRRIHTGERPYACPDCDRSFSQKSNLITHRKSHIRDGAFCCAICGQTFDDEERLLAHQKKHDV [REPIN1]”, the thermal stability score in data set [1] (setting [5]) was -0.836; in data set [1] (cell cycle stage: mitosis), -2.05. In addition, the “solubility change mitosis (log2)” value in data set [2] was -0.0234. Moreover, the melting temperature is 54.4 °C in data set [3] (cell cycle stage: G1/S) and 52.9 °C in data set [3] (cell cycle stage: mitosis). In addition, the “solubility in G1/S (log2)” value in data set [4] is -0.0762.
